According to patent publication US20250215091A1, “Anti-GAL3 Antibodies and Compositions” (Les Laboratoires Servier, priority 2022, published 2025):

Molecular target: T1, recombinant human Gal3 full-length (Hu-Gal3-FL) (Homo sapiens, UniProt P17931)
T1 construct: recombinant human Gal3 full-length (Hu-Gal3-FL); purchased Novalix
Experiment: SPR (Biacore T-200) affinity on human full-length Gal3
Format: binding
Conditions: full-length Gal3, 25° C.
Description: The interaction of the anti-Gal3 antibody with recombinant human Gal3 full-length (Hu-Gal3-FL) and murine Gal3 (m-Gal3-FL) (from Novalix) was monitored by surface plasmon resonance (SPR) detection using a Biacore T-200 instrument.
Binding studies were performed in freshly prepared, filtered and degassed running buffer containing 10 mM HEPES, 150 mM NaCl, and 0.05% P20 (HBS-P, Cytiva Life Sciences) at 25° C. Before performing the binding studies, the CM5 sensor surface immobilized with anti-human Fc mAb was equilibrated with HBS-P by priming the instrument at least three to four times.
The CM5 sensor surface was first immobilized with an anti-human Fc mAb using a standard protocol. The entire sensor surface was first activated by injecting a 1:1 (v/v) mixture of 400 mM EDC and 100 mM NHS at a flow rate of 10 μL/minute for 7 minutes. Monoclonal anti-human Fc antibody (Millipore AP113), 25 μg/mL in Na acetate pH5, 360 s were flowed at 10 μL/minute to reach 10000 RU on both flow cells followed by the injection of 1 M ethanolamine, pH8.5 for 7 minutes at a flow rate of 10 μL/minute. During the entire immobilization procedure, HBS-P was used as the running buffer.
Antibody samples were prepared at 5 μg/ml and were injected for 30 seconds at 10 μL/minute. In general, 400 to 680 resonance units of antibodies were captured on the chip.

T1 sequence (P17931 whole entry): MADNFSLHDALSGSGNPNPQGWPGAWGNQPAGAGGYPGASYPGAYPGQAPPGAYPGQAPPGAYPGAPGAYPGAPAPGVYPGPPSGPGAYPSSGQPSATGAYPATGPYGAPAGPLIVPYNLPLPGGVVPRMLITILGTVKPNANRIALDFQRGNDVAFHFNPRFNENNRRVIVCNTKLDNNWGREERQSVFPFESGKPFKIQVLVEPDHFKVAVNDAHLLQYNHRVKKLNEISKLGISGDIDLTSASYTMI

- Kd: 4.9 nM
B1: H10-G1: germline framework variant of H10; Table 3 lists H10-G with VH SEQ ID NO 90, VL SEQ ID NO 91 (antibody, V domains shown)
VH: EVQLVESGGGLVKPGGSLRLSCAASGFTFSNYYMNWVRQAPGKGLEWISYINGASRDISYADSVKGRFTISRDNAKNSLYLQMNSLRAEDTAVYYCVRSSYGYSNYGSGMDVWGRGTLVTVSS
VL: QSALTQPASVSGSPGQSITISCTGTSSDVGGSYNVAWYQQHPGKAPKLMIYNDANRPSGVSNRFSGSKSGNTASLTISGLQAEDEADYYCSSNTADSTRVFGGGTKLEIK
